From the supplement of paper PMC11908140

B1: library; numbered along this chain (parent)
chain: MRKPRAAVGSGHRKQAASQEGRQKHAKNNSQAKPSACDGLARQPEEVVLQASVSSYHLFRDVAEVTAFRGSLLSWYDQEKRDLPWRRRAEDEMDLDRRAYAVWVSEVMLQQTQVATVINYYTGWMQKWPTLQDLASASLEEVNQLWAGLGYYSRGRRLQEGARKVVEELGGHMPRTAETLQQLLPGVGRYTAGAIASIAFGQATGVVDGNVARVLCRVRAIGADPSSTLVSQQLWGLAQQLVDPARPGDFNQAAMELGATVCTPQRPLCSQCPVESLCRARQRVEQEQLLASGSLSGSPDVEECAPNTGQCHLCLPPSEPWDQTLGVVNFPRKASRKPPREESSATCVLEQPGALGAQILLVQRPNSGLLAGLWEFPSVTWEPSEQLQRKALLQELQRWAGPLPATHLRHLGEVVHTFSHIKLTYQVYGLALEGQTPVTTVPPGARWLTQEEFHTAAVSTAMKKVFRVYQGQQPGTCMGSKRSQVSSPCSRKKPRMGQQVLDNFFRSHISTDAHSLNSAAQ

Variants of: B1
Experiment: 8OG:A repair function score (normalized; synonymous = 0, nonsense = -1) (normalized log-likelihood score); higher = more repair activity (WT-like)
Settings: with 8OG:A DNA repair reporter (GFP) in HEK-293 MUTYH KO cells
Outline: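 Lentiviral MUTYH cDNA NNN codon-scan libraries in HEK-293 MUTYH knockout cells (10 pg/ml doxycycline) were co-transfected with an 8OG:A GFP repair reporter plus mCherry. At 72 h, viable mCherry+ cells were sorted into GFP+ (repair) and GFP− bins, three replicates per tile, then tile amplicons were sequenced. Per-tile Rosace fitness scores became a normalized repair function score anchored on synonymous and nonsense distributions. Synonymous medians were set to 0 and nonsense to -1; variants under 300 counts per million at the start were removed.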

8OG:A repair function score, by site and new letter:
H407: C -0.123, F -0.245, Y -0.269, N 0.205, I 0.0779, R -0.0136, W -0.172, A 0.245, V 0.0608, K -0.104, T -0.107, P -0.0456, L -0.0178, E -0.226, M -0.456, G -0.0586, Q 0.0383, D 0.0493, S -0.109
P404: Q 0.15, S -0.587, A -0.142, K 0.298, G -0.187, M 0.184, L 0.0132, T -0.55, I 0.118, H 0.138, N 0.336, F -0.272, Y -0.119, E 0.341, R 0.163, D -0.155, W -0.26, V -0.000894, C -0.224
L403: D -0.686, W -0.318, T 0.0396, A -0.335, S -0.428, K -0.295, N -0.0773, R -0.392, F 0.0495, E -0.596, I 0.0162, G -0.509, V 0.058, P -0.0649, M -0.0231, Y -0.513, Q 0.0753, C 0.158
H416: M -0.755, K -0.715, D -0.403, E -0.909, V -0.101, Q 0.399, R -0.158, S -0.0543, L -0.319, N -0.342, I -0.188, P -0.576, Y -0.438, W -0.209, T 0.0616, C -0.483, A -0.0865, G -0.0614, F -0.448
P402: F -0.215, N -0.282, L -0.318, I -0.0565, R -0.0808, D 0.516, E -0.208, S -0.138, M 0.138, Q -0.236, K -0.00401, C -0.0435, T -0.26, G -0.274, W -0.534, V -0.0663, Y -0.122, A -0.0823
T406: P -0.287, Y -0.265, F -0.539, D 0.483, G -0.00238, N 0.0152, R 0.0241, I 0.313, M -0.199, S -0.184, V 0.013, H 0.516, E -0.17, C 0.13, W -0.0828, Q -0.294, L -0.249, A 0.32, K 0.103
V415: Y -0.275, M 0.0821, S 0.0289, Q 0.189, I 0.053, C 0.022, W 0.0208, G -0.172, K -0.327, T -0.106, P -0.0885, F -0.391, E -0.106, A 0.0175, N -0.11, H -0.115, R 0.157, D -0.364, L 0.0523
G401: R -0.272, S -0.0552, N 0.111, Y -0.393, W -0.421, K -0.582, Q -0.521, I -0.184, V -0.142, L -0.214, M -0.302, T -0.428, P 0.0452, H -0.241
L408: H -1.11, Q -0.293, E -1.61, M -0.0275, Y -0.205, D -0.946, C 0.18, S -0.483, W -0.833, I 0.246, R -0.839, T -0.417, K -0.858, G -0.81, A -0.717, N -0.893, V -0.347, P -0.461, F -0.529
H410: I -0.161, T -0.322, E -0.292, C -0.293, D -0.324, G -0.298, N -0.157, V -0.2, P -0.371, K -0.0723, Q -0.291, L -0.3, W -0.367, Y 0.174, S -0.169, R 0.0868, M 0.0995, A -0.29, F 0.096
V414: P -1.01, T -0.0984, C 0.129, W -0.504, Q -0.321, R -0.625, S -0.294, D -0.769, M -0.321, L -0.0973, Y -0.314, K -0.609, I -0.137, N -0.679, A -0.157, G -0.649, E -0.742, F -0.187, H -0.326
R409: D -0.0632, L 0.0499, C -0.178, N -0.0513, F -0.167, T 0.31, Q -0.332, Y -0.0918, G -0.342, I -0.183, S 0.0978, W 0.0733, A -0.0367, V 0.0575, E 0.0558, P -0.541, M -0.242, K -0.145, H -0.288
A405: Q -0.0438, V -0.00982, W -0.606, F 0.0223, T -0.128, E 0.199, N -0.161, Y -0.204, C 0.144, H -0.489, D -0.0995, L -0.177, M -0.161, K 0.0168, P 0.125, I 0.0761, R 0.00307, G -0.0383, S 0.0326
F418: D -1.06, E -0.889, C -0.171, R -0.722, W -0.969, A -0.333, G -0.636, M 0.07, V -0.269, I 0.255, L -0.304, P -0.719, H -0.4, T -0.165, K -0.75, N -0.355, Q -0.554, S -0.474
T417: L -0.0186, W -0.253, Q -0.0624, R 0.199, G -0.208, V 0.0389, I -0.142, F 0.0432, C -0.188, K 0.36, H -0.254, N 0.149, M 0.321, D -0.0817, S 0.0785, E 0.0158, A 0.198, P -0.506, Y 0.325
E413: H 0.00964, V -0.059, C -0.201, Y -0.109, S 0.169, F 0.0141, M -0.375, K 0.103, P -0.386, D -0.00314, R -0.0915, Q -0.0587, N -0.0589, G -0.112, T 0.369, W -0.379, L -0.056, A -0.0523, I 0.00451
G412: P -0.295, F -0.473, Q -0.645, Y -0.721, V -0.894, C -0.809, E -0.631, R -0.598, K -0.396, W -0.986, T -0.494, S -0.26, D -0.162, M -0.67, L -0.855, N -0.34, A -0.236, I -0.788, H -0.792
L411: I 0.148, D -0.751, K -0.505, F -0.151, V 0.0699, C 0.0617, M -0.193, A -0.00099, H 0.0947, G -0.531, E -0.473, P -0.665, R -0.222, T -0.469, S -0.29, Q -0.494, N -0.503, W -0.28, Y 0.251
